According to IntAct's records for PubMed 16203728:

B1: Erbin (Homo sapiens), Q96RT1-2 (parent)
chain: MTTKRSLFVRLVPCRCLRGEEETVTTLDYSHCSLEQVPKEIFTFEKTLEELYLDANQIEELPKQLFNCQSLHKLSLPDNDLTTLPASIANLINLRELDVSKNGIQEFPENIKNCKVLTIVEASVNPISKLPDGFSQLLNLTQLYLNDAFLEFLPANFGRLTKLQILELRENQLKMLPKTMNRLTQLERLDLGSNEFTEVPEVLEQLSGLKEFWMDANRLTFIPGFIGSLKQLTYLDVSKNNIEMVEEGISTCENLQDLLLSSNSLQQLPETIGSLKNITTLKIDENQLMYLPDSIGGLISVEELDCSFNEVEALPSSIGQLTNLRTFAADHNYLQQLPPEIGSWKNITVLFLHSNKLETLPEEMGDMQKLKVINLSDNRLKNLPFSFTKLQQLTAMWLSDNQSKPLIPLQKETDSETQKMVLTNYMFPQQPRTEDVMFISDNESFNPSLWEEQRKQRAQVAFECDEDKDEREAPPREGNLKRYPTPYPDELKNMVKTVQTIVHRLKDEETNEDSGRDLKPHEDQQDINKDVGVKTSESTTTVKSKVDEREKYMIGNSVQKISEPEAEISPGSLPVTANMKASENLKHIVNHDDVFEESEELSSDEEMKMAEMRPPLIETSINQPKVVALSNNKKDDTKETDSLSDEVTHNSNQNNSNCSSPSRMSDSVSLNTDSSQDTSLCSPVKQTHIDINSKIRQEDENFNSLLQNGDILNSSTEEKFKAHDKKDFNLPEYDLNVEERLVLIEKSVDSTATADDTHKLDHINMNLNKLITNDTFQPEIMERSKTQDIVLGTSFLSINSKEETEHLENGNKYPNLESVNKVNGHSEETSQSPNRTEPHDSDCSVDLGISKSTEDLSPQKSGPVGSVVKSHSITNMEIGGLKIYDILSDNGPQQPSTTVKITSAVDGKNIVRSKSATLLYDQPLQVFTGSSSSSDLISGTKAIFKFDSNHNPEEPNIIRGPTSGPQSAPQIYGPPQYNIQYSSSAAVKDTLWHSKQNPQIDHASFPPQLLPRSESTENQSYAKHSANMNFSNHNNVRANTAYHLHQRLGPARHGEMWAISPNDRLIPAVTRSTIQRQSSVSSTASVNLGDPGSTRRAQIPEGDYLSYREFHSAGRTPPMMPGSQRPLSARTYSIDGPNASRPQSARPSINEIPERTMSVSDFNYSRTSPSKRPNARVGSEHSLLDPPGKSKVPRDWREQVLRHIEAKKLEKMPLSNGQMGQPLRPQANYSQIHHPPQASVARHPSREQLIDYLMLKVAHQPPYTQPHCSPRQGHELAKQEIRVRVEKDPELGFSISGGVGGRGNPFRPDDDGIFVTRVQPEGPASKLLQPGDKIIQANGYSFINIEHGQAVSLLKTFQNTVELIIVREVSS

Variants of: B1
Details: with nod2_human NOD2, Q9HC29
Sequence of nod2_human NOD2, Q9HC29 (Q9HC29 whole entry): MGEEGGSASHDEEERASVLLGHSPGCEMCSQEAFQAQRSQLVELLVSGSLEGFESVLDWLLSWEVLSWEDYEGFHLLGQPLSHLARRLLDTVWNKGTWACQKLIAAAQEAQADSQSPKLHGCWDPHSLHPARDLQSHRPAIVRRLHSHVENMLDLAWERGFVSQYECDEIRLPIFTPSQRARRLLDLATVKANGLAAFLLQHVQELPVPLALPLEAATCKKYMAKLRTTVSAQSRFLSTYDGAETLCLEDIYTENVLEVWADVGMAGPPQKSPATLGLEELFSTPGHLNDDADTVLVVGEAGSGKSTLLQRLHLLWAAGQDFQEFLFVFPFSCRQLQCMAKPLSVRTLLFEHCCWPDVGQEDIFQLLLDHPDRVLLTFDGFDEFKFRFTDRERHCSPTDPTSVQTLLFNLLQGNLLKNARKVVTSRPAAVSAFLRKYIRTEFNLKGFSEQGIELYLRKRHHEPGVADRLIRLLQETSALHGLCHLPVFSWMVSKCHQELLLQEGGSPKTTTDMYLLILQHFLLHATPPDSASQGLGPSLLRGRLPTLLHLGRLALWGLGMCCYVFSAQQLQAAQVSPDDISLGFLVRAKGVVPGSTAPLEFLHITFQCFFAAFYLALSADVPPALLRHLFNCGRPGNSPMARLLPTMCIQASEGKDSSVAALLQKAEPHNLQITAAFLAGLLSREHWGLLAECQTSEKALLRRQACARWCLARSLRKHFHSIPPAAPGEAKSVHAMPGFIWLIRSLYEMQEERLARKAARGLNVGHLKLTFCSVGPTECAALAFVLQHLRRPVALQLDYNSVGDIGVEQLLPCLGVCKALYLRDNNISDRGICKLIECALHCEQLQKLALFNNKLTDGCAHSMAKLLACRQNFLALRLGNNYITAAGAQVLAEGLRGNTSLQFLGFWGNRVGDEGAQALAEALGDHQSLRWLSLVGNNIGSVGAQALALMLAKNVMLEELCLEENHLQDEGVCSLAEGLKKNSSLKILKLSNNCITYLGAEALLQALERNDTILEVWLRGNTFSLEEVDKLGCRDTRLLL

effect of a mutation on the interaction | Variant
decreasing interaction | P315L
